{"source": "patent US20150307603A1", "about": "(MODIQUEST B V, published 2015)", "binders": {"B1": {"name": "RhmAb2.102 (antibody, human IgG1, lambda)", "heavy": "not shown", "light": "QSVLTQPPSMSAAPGQKVTISCSGSSSNIGNNYVSWYQQVPGTAPKLLIYDDNKRPSGIPGRFSGSKSATSATLGITGLQAGDEADYYCGSWDDNLSVVLFGGGTKLTVLGQPKAAPSVTLFPPSSEELQANKATLVCLISDFYPGAVTVAWKADSSPVKAGVETTTPSKQSNNKYAASSYLSLTPEQWKSHRSYSCQVTHEGSTVEKTVAPTECS", "notes": "Human IgG1 lambda; also called Rhm2.102"}}, "key": {"huFibα XG": {"target": "T1, huFibα XG (human, X at position 8 = citrulline; biotin-labelled)", "T1 peptide": "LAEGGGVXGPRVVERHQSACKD", "assay": "ELISA, Ab 0.4 ug/well", "description": "(§1) Biotin and citrulline-containing peptides derived from fibrinogen and vimentin were immobilized on NEUTRAVIDIN®-coated 96-well ELISA plates (0.3 μg/well). CFC-1 and CFC-0 were coated at the same concentration and served as positive and negative controls, respectively, for specific anti-citrulline reactivity and as coating controls. Non-coated wells were used to test for aspecific binding of the antibodies. […] Detection of bound anti-citrulline antibodies was performed by incubating the wells with rabbit anti-human HRP (1:2000) for 1 hour at RT followed by incubation with TMB substrate. The resulting OD (y-axis) is a measure for antibody binding.\n(§2) Biotin-labeled and citrulline-containing fibrinogen and vimentin peptides (Table 5) were also tested for reactivity with the therapeutic antibodies. Peptides were coated on 96-well NEUTRAVIDIN®-ELISA plates."}, "msFibα XG": {"target": "T2, msFibα XG (mouse, X at position 8 = citrulline; biotin-labelled)", "T2 peptide": "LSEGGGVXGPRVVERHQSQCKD", "assay": "ELISA, Ab 0.4 ug/well", "description": "as §1, §2"}, "msFibβ XG": {"target": "T3, msFibβ XG (mouse, also: biotin-labelled)", "T3 construct": "also called mouse fibrinogen β peptide", "T3 peptide": "EPTDSLDA[Cit]GHRPVDRR", "assay": "ELISA, Ab 0.4 ug/well", "description": "as §1, §2"}, "CFC-1 [1]": {"target": "T4, CFC-1", "T4 construct": "Positive control for anti-citrulline reactivity; also called cfc1 XG; Cfc1-peptide", "assay": "ELISA, Ab 0.4 ug/well", "description": "as §1, §2"}, "msFibα XH": {"target": "T5, msFibα XH (mouse, X at position 15 = citrulline; biotin-labelled)", "T5 peptide": "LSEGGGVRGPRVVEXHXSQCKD", "assay": "ELISA, Ab 0.4 ug/well", "description": "as §1, §2"}, "[2]": {"target": "T6, huPAD4-deiminated human recombinant histone 2B (human)", "T6 construct": "also called H2B/p4", "assay": "ELISA, Ab 0.4 ug/well", "excerpt": "(§3) The resulting OD (y-axis) is a measure for antibody binding. H1-recombinant histone 1; H1/p2-huPAD2 recombinant histone 1; H1/p4-huPAD4 recombinant histone 1, and so forth (x-axis)."}, "[3]": {"target": "T7, huPAD2-deiminated human recombinant histone 3 (human)", "T7 construct": "also called H3/p2; histone 3/p2", "assay": "ELISA, Ab 0.4 ug/well", "excerpt": "as §3"}, "[4]": {"target": "T6, huPAD4-deiminated human recombinant …", "assay": "ELISA, Ab 2 ug/well", "excerpt": "as §3"}, "[5]": {"target": "T8, human recombinant histone 2B (human)", "T8 construct": "Non-deiminated; also called H2B", "assay": "ELISA, Ab 2 ug/well", "excerpt": "as §3"}, "[6]": {"target": "T9, human recombinant histone 4 (human, UniProt P62805 2-103)", "assay": "ELISA, Ab 2 ug/well", "excerpt": "as §3"}, "[7]": {"target": "T10, huPAD4-deiminated human recombinant histone 3 (human)", "T10 construct": "also called H3/p4", "assay": "ELISA, Ab 2 ug/well", "excerpt": "as §3"}, "CFC-1 [8]": {"target": "T4, CFC-1", "assay": "ELISA, Ab 2 ug/well", "excerpt": "as §3"}, "[9]": {"target": "T11, human recombinant histone 2A (human)", "T11 construct": "Non-deiminated; also called H2A", "assay": "ELISA, Ab 2 ug/well", "excerpt": "as §3"}, "[10]": {"target": "T12, huPAD2-deiminated human recombinant histone 2A (human)", "T12 construct": "also called H2A/p2; histone 2A/p2", "assay": "ELISA, Ab 2 ug/well", "excerpt": "as §3"}, "[11]": {"target": "T7, huPAD2-deiminated human recombinant …", "assay": "ELISA, Ab 2 ug/well", "excerpt": "as §3"}, "[12]": {"target": "T13, huPAD2-deiminated human recombinant histone 2B (human)", "T13 construct": "also called H2B/p2", "assay": "ELISA, Ab 2 ug/well", "excerpt": "as §3"}, "[13]": {"target": "T14, huPAD4-deiminated human recombinant histone 2A (human)", "T14 construct": "also called H2A/p4; histone 2A/p4", "assay": "ELISA, Ab 2 ug/well", "excerpt": "as §3"}, "[14]": {"target": "T6, huPAD4-deiminated human recombinant …", "assay": "ELISA, Ab 0.016 ug/well", "excerpt": "as §3"}, "[15]": {"target": "T8, human recombinant histone 2B", "assay": "ELISA, Ab 0.016 ug/well", "excerpt": "as §3"}, "[16]": {"target": "T9, human recombinant histone 4", "assay": "ELISA, Ab 0.016 ug/well", "excerpt": "as §3"}, "[17]": {"target": "T10, huPAD4-deiminated human recombinant …", "assay": "ELISA, Ab 0.016 ug/well", "excerpt": "as §3"}, "CFC-1 [18]": {"target": "T4, CFC-1", "assay": "ELISA, Ab 0.016 ug/well", "excerpt": "as §3"}, "[19]": {"target": "T11, human recombinant histone 2A", "assay": "ELISA, Ab 0.016 ug/well", "excerpt": "as §3"}, "[20]": {"target": "T12, huPAD2-deiminated human recombinant …", "assay": "ELISA, Ab 0.016 ug/well", "excerpt": "as §3"}, "[21]": {"target": "T7, huPAD2-deiminated human recombinant …", "assay": "ELISA, Ab 0.016 ug/well", "excerpt": "as §3"}, "[22]": {"target": "T13, huPAD2-deiminated human recombinant …", "assay": "ELISA, Ab 0.016 ug/well", "excerpt": "as §3"}, "[23]": {"target": "T14, huPAD4-deiminated human recombinant …", "assay": "ELISA, Ab 0.016 ug/well", "excerpt": "as §3"}, "[24]": {"target": "T6, huPAD4-deiminated human recombinant …", "assay": "ELISA, Ab 0.00064 ug/well", "excerpt": "as §3"}, "[25]": {"target": "T8, human recombinant histone 2B", "assay": "ELISA, Ab 0.00064 ug/well", "excerpt": "as §3"}, "[26]": {"target": "T9, human recombinant histone 4", "assay": "ELISA, Ab 0.00064 ug/well", "excerpt": "as §3"}, "CFC-1 [27]": {"target": "T4, CFC-1", "assay": "ELISA, Ab 0.00064 ug/well", "excerpt": "as §3"}, "[28]": {"target": "T11, human recombinant histone 2A", "assay": "ELISA, Ab 0.00064 ug/well", "excerpt": "as §3"}, "[29]": {"target": "T12, huPAD2-deiminated human recombinant …", "assay": "ELISA, Ab 0.00064 ug/well", "excerpt": "as §3"}, "[30]": {"target": "T13, huPAD2-deiminated human recombinant …", "assay": "ELISA, Ab 0.00064 ug/well", "excerpt": "as §3"}, "[31]": {"target": "T14, huPAD4-deiminated human recombinant …", "assay": "ELISA, Ab 0.00064 ug/well", "excerpt": "as §3"}}, "note": "Non-standard residues stand in square brackets, D forms with d. No end group written: not given here. Cit = NC(=O)NCCC[C@H](N)C(=O)O", "data": [{"binder": "B1", "values": [{"measurement": "OD", "setting": "huFibα XG", "result": 0.521, "unit": "OD450"}, {"measurement": "OD", "setting": "msFibα XG", "result": 0.773, "unit": "OD450"}, {"measurement": "OD", "setting": "msFibβ XG", "result": 1.67, "unit": "OD450"}, {"measurement": "OD", "setting": "CFC-1 [1]", "result": 3.79, "unit": "OD450"}, {"measurement": "OD", "setting": "msFibα XH", "result": 0.076, "unit": "OD450"}, {"measurement": "OD", "setting": "[2]", "result": 0.054, "unit": "OD450"}, {"measurement": "OD", "setting": "[3]", "result": 1.18, "unit": "OD450"}, {"measurement": "OD", "setting": "[4]", "result": 0.069, "unit": "OD450"}, {"measurement": "OD", "setting": "[5]", "result": 0.076, "unit": "OD450"}, {"measurement": "OD", "setting": "[6]", "result": 0.208, "unit": "OD450"}, {"measurement": "OD", "setting": "[7]", "result": 0.439, "unit": "OD450"}, {"measurement": "OD", "setting": "CFC-1 [8]", "result": 3.38, "unit": "OD450"}, {"measurement": "OD", "setting": "[9]", "result": 0.115, "unit": "OD450"}, {"measurement": "OD", "setting": "[10]", "result": 3.18, "unit": "OD450"}, {"measurement": "OD", "setting": "[11]", "result": 1.94, "unit": "OD450"}, {"measurement": "OD", "setting": "[12]", "result": 0.086, "unit": "OD450"}, {"measurement": "OD", "setting": "[13]", "result": 3.13, "unit": "OD450"}, {"measurement": "OD", "setting": "[14]", "result": 0.052, "unit": "OD450"}, {"measurement": "OD", "setting": "[15]", "result": 0.065, "unit": "OD450"}, {"measurement": "OD", "setting": "[16]", "result": 0.061, "unit": "OD450"}, {"measurement": "OD", "setting": "[17]", "result": 0.076, "unit": "OD450"}, {"measurement": "OD", "setting": "CFC-1 [18]", "result": 0.702, "unit": "OD450"}, {"measurement": "OD", "setting": "[19]", "result": 0.057, "unit": "OD450"}, {"measurement": "OD", "setting": "[20]", "result": 0.628, "unit": "OD450"}, {"measurement": "OD", "setting": "[21]", "result": 0.155, "unit": "OD450"}, {"measurement": "OD", "setting": "[22]", "result": 0.052, "unit": "OD450"}, {"measurement": "OD", "setting": "[23]", "result": 0.426, "unit": "OD450"}, {"measurement": "OD", "setting": "[24]", "result": 0.055, "unit": "OD450"}, {"measurement": "OD", "setting": "[25]", "result": 0.052, "unit": "OD450"}, {"measurement": "OD", "setting": "[26]", "result": 0.06, "unit": "OD450"}, {"measurement": "OD", "setting": "CFC-1 [27]", "result": 0.077, "unit": "OD450"}, {"measurement": "OD", "setting": "[28]", "result": 0.057, "unit": "OD450"}, {"measurement": "OD", "setting": "[29]", "result": 0.077, "unit": "OD450"}, {"measurement": "OD", "setting": "[30]", "result": 0.052, "unit": "OD450"}, {"measurement": "OD", "setting": "[31]", "result": 0.075, "unit": "OD450"}]}]}
